From patent US7148193B2, “Compounds that bind to growth hormone receptor” (Antyra, Inc., priority 1997, dated 2006)
Changes are numbered by the printed parent chain.

What was measured:
[1] = target: T1, rGHBP (Rattus norvegicus, UniProt P16310); assay: Phage ELISA binding and competition on rGHBP coated wells; conditions: for ELISA Competition, rGHBP, +BSA / ELISA Competition, rGHBP, +bGH / ELISA Competition, rGHBP, none: ELISA signal; for ELISA Competition, rGHBP, +BSA: BSA 1 μM; for ELISA Competition, rGHBP, none: no competitor; for clone binding blocked by GH: GH 1 μM, bovine GH on rat GHBP wells, huGH on ‘hu’ GHBP wells
T1 construct: 1–48 of GHBP; The 3′ oligo used for this reaction encoded the mutation L43R (CTG→AGA); The second PCR reaction amplified the DNA encoding amino acids 38–260; 6xHis; made in house
T1 sequence (P16310 19-278 isoform P16310-2): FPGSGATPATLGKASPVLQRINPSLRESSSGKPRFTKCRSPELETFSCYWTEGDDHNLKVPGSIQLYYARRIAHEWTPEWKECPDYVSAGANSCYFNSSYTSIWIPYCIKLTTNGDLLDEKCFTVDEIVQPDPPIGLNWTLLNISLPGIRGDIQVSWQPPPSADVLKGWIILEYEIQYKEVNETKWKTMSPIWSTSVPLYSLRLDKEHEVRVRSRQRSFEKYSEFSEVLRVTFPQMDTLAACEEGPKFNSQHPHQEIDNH
Description: For analysis of individual clones, colonies were picked and phage prepared as described above. Microtiter wells were coated and blocked as described above. Wells were coated with either rGHBP or a control IgG MAb. Phage resuspended in MPBS were added to duplicate wells (100 μl/well) and incubated at room temperature for 1 hr. The phage solution was then removed, and the wells were washed three times with PBS at room temperature. Anti-M13 antibody conjugated to horseradish peroxidase (Pharmacia Biotech) was diluted 1:3000 in MPBS and added to each well (100 μl/well). Incubation was for another hour at room temperature, followed by PBS washes as described. Color was developed by addition of ABTS solution (100 μl/well; Boehringer). Color development was stopped by adjusting each well to 0.5% SDS. Plates were analyzed at 405 nm using a SpectraMax 340 plate reader (Molecular Devices) and SoftMax Pro software. Data points were averaged after subtraction of appropriate blanks. A clone was considered “positive” if the A405 of the well was >2-fold over background. […]
These clones were next analyzed for binding to the receptor's active sites (FIG. 2B). Competitions of phage binding were done both with the cognate ligand (i.e., GH) and with a specific target-neutralizing MAb 2C3 (Wang, B. S., et al. Mol. Cellular Endocrinology, vol. 116, p. 223–226, 1996).
(§1) Clones were tested for the presence of E-tag and binding to ‘hu’ GHBP, rGHBP, or BSA-coated wells. Those having specific GHBP binding (i.e., at least 2 fold greater binding to the GHBP than BSA) and with an E-tag positive signal were subjected to DNA sequencing. Three different clones were isolated and tested a second time against GHBP plus and minus GH (1 μM) or BSA (1 μM) coated wells as described. In these tests, huGH was used as competitor with ‘hu’ GHBP coated wells and bovineGH was used as a competitor with rat GHBP coated wells. […] The following open reading frame insertion including the DYKD (SEQ ID NO:79) amino terminal tag and up to the C-terminal E-tag was obtained for these clones; and is shown in Table III: […]

[2] = target: T2, ‘hu’ GHBP (humanized rat GHBP) (Rattus norvegicus, UniProt P16310, L61R); assay: Phage ELISA binding and competition on 'hu' GHBP coated wells; conditions: ELISA signal; for ELISA Competition, ‘hu’GHBP, +BSA: BSA 1 μM; for ELISA Competition, ‘hu’GHBP, +hGH: huGH 1 μM as competitor; for ELISA Competition, ‘hu’GHBP, none: no competitor
T2 construct: 1–48 of GHBP; The 3′ oligo used for this reaction encoded the mutation L43R (CTG→AGA); The second PCR reaction amplified the DNA encoding amino acids 38–260; 6xHis; made in house
T2 sequence (P16310 19-278 isoform P16310-2 L61R): T1 sequence (P16310 19-278 isoform P16310-2) with L43R
Description: For analysis of individual clones, colonies were picked and phage prepared as described above. Microtiter wells were coated and blocked as described above. Wells were coated with either rGHBP or a control IgG MAb. Phage resuspended in MPBS were added to duplicate wells (100 μl/well) and incubated at room temperature for 1 hr. The phage solution was then removed, and the wells were washed three times with PBS at room temperature. Anti-M13 antibody conjugated to horseradish peroxidase (Pharmacia Biotech) was diluted 1:3000 in MPBS and added to each well (100 μl/well). Incubation was for another hour at room temperature, followed by PBS washes as described. Color was developed by addition of ABTS solution (100 μl/well; Boehringer). Color development was stopped by adjusting each well to 0.5% SDS. Plates were analyzed at 405 nm using a SpectraMax 340 plate reader (Molecular Devices) and SoftMax Pro software. Data points were averaged after subtraction of appropriate blanks. A clone was considered “positive” if the A405 of the well was >2-fold over background.
Humanized GHBP (‘hu’ GHBP) contained the single amino acid change of rat GHBP amino acids L43 to R43, and was capable of binding human GH, as shown in FIG. 9. Direct immobilization of ‘hu’ GHBP was done as described earlier for panning of the secondary H5 library against rat GHBP and used inputs of ‘hu’ GHBP, prepared as described earlier of 100 μl per well of […] protein. Panning was performed with or without H10 peptide (SEQ ID NO:9; 30 μM) for 4 rounds, and 96 clones were picked.
as §1

[3] = target: T1, rGHBP; assay: Species specificity of binding by ELISA and BIAcore, rGHBP; conditions: in words
Description: (§2) Wells were coated with either recombinant rGHBP or ‘hu’ GHBP (100 ng/well). Additions of H5 (SEQ ID NO:8) and H10 (SEQ ID NOS:9, 80, and 81) phage (10^10/well) and detection were made as described. […] Streptavidin chips were coated with H5 (SEQ ID NO:8) to 1100 RU as described and rGHBP or ‘hu’ GHBP (500 μg/ml) injected as 30 μl samples.
(§3) Growth hormone receptors from different species bind human GH as well as their own GH, however human GHR only binds human or monkey GH. […] The sequence of rGHBP was altered by PCR to create a “humanized” version (‘hu’ GHBP; FIG. 9A). Partially purified ‘hu’GHBP (FIG. 9B) was tested for binding using ELISA and BIAcore analysis. […] This was confirmed by BIAcore analysis (FIG. 10B).
(§4) The biotinylated control peptide (SEQ ID NO:10) was immobilized onto one flow cell of a SA-5 (streptavidin coated) sensor chip to a final density of 700 RU. On a second flow cell, either hGH (1100 RU final density), H5WT peptide (SEQ ID NO:8; 1100 RU final density), or bGH (730 RU final density) was immobilized. GHBP (either rat or humanized) was injected at a concentration of 500 μg/ml with a flow rate of 5 μl/min. Background binding to the control surface was subtracted prior to further analysis.

[4] = target: T3, ‘hu’ GHBP (Rattus norvegicus, UniProt P16310, L61R); assay: Species specificity of binding by ELISA and BIAcore, 'hu' GHBP; conditions: in words
T3 construct: 1–48 of GHBP; The 3′ oligo used for this reaction encoded the mutation L43R (CTG→AGA); The second PCR reaction amplified the DNA encoding amino acids 38–260; 6xHis; made in house
T3 sequence (P16310 19-278 isoform P16310-2 L61R): T1 sequence (P16310 19-278 isoform P16310-2) with L43R
Description: as §2, §3, §4

[5] = target: T4, rat growth hormone receptor (Rattus norvegicus, UniProt P16310); assay: Cell proliferation assay (WST-1) in FDC-1 cells stably transfected with rat growth hormone receptor; assay type: cell-based; conditions: cells with 0.003 μM bovine GH, 18 h, at the concentrations tested
T4 construct: expressed in transfected cells; host or cells: FDC-1 cells
T4 sequence (P16310 19-638): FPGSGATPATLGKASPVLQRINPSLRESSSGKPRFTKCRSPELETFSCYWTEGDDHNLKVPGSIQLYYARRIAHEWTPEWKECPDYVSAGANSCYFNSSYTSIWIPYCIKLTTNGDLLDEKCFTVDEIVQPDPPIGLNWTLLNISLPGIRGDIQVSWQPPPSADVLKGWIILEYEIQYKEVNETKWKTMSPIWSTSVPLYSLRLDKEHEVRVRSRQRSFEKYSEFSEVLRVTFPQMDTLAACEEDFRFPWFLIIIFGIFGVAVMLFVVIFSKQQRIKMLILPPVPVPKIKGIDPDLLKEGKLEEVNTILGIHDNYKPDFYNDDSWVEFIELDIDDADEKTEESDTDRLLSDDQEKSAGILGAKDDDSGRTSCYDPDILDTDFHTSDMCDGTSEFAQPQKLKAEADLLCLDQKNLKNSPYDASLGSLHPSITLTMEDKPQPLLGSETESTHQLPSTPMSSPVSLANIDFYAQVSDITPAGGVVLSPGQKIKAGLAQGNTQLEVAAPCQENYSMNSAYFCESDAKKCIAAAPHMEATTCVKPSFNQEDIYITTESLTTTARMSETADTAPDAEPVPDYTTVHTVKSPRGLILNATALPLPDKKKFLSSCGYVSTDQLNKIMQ
Description: Cells transfected with rat GHR (50,000 cells per well) were incubated with either bovine GH, H5 peptide (SEQ ID NO:8), 447 peptide (SEQ ID NO:11) or control peptide (SEQ ID NO:10) for 18 h at 37° C. Experiments were done in triplicate. Background signal A450=0.15. […] Cells transfected with rat GHR (50,000 cells per well) containing […] bovine GH were incubated with either control peptide (SEQ ID NO:10), H5 peptide (SEQ ID NO:8) or 447 peptide (SEQ ID NO:11) for 18 h at 37° C. Proliferation was measured using WST-1 reagent. The “*” symbol corresponds to the A450 measurement for the cells incubated without GH.
Agonistic and antagonistic activities of the two peptides, H5WT (SEQ ID NO:8) and bP#447 ([…]), were tested in FDC-1 cells stably transfected with the gene encoding the rat growth hormone receptor. The resulting cell line required either IL-3 or GH for growth. The cells were grown in RPMI 1640 medium containing 10% FCS (fetal calf serum) and 20 units of IL-3 per ml. […] activity assays were performed in a total volume of 100 μl in 96 well plates (flat bottom). Cells were seeded at 50,000 cells/well in 50 μl RPMI 1640 (without IL-3) medium containing horse serum instead of FCS to reduce background. To duplicate wells, 50 μl of either growth hormone or peptides at different concentrations was added, followed by incubation for 18 h in a CO2 incubator. Assays to measure the antagonistic activity were performed in a total volume of 100 μl in 96 well plates. Either H5WT peptide (SEQ ID NO:8), bP#447 peptide (SEQ ID NO:11), or control peptide (SEQ ID NO:10) was added to cells containing 0.003 μM of bovine GH and incubated at 37° C. for 18 h in a CO2 incubator. Proliferation assays were performed using WST-1 reagent. The WST-1 tetrazolium salt (light red color) is cleaved to formazan (dark red color) by the succinate-tetrazolium reductase system, which is active only in viable cells. […] Ten microliters of WST-1 reagent was added and the plates incubated for 1–4 h 37° C. Proliferation was measured by absorbance at 450 nm.

H10: frame shifted phage clone without ORF, SEQ ID NOS:9, 80 and 81, binds rGHBP outside the active site (WLGCYFVAGVVACV; H10 peptide)
ELISA Competition, rGHBP, +BSA [1]: 0.52 | ELISA Competition, rGHBP, +bGH ([1]; bovine GH 1 μM as competitor): 0.48 | ELISA Competition, rGHBP, none [1]: 0.52 | phage binding to rGHBP blocked by GH and MAb 2C3 ([1]; competition ELISA of phage binding): not blocked by either GH or MAb 2C3 | ELISA Competition, ‘hu’GHBP, +BSA [2]: 0.29 | ELISA Competition, ‘hu’GHBP, +hGH [2]: 0.28 | ELISA Competition, ‘hu’GHBP, none [2]: 0.30 | binding to rGHBP [3]: bound to rGHBP | binding to ‘hu’ GHBP [4]: bound to rGHBP and ‘hu’ GHBP

DYKDAQWWTTlGSNMFVLPGLRGCTFLPPMQCDREIRVFLVVVH (DYKDAQWWTTIGSNMFVLPGLRGCTFLPPMQCDREIRVFLVVVH; phage displayed; clone 13 peptide) [compound 13]
ELISA Competition, rGHBP, +BSA ([1]; phage concentrated 15×): 1.98 | ELISA Competition, rGHBP, +bGH ([1]; bovine GH 1 μM, phage concentrated 15×): 0.29 | ELISA Competition, rGHBP, none ([1]; phage concentrated 15×): 2.01 | clone binding blocked by GH [1]: blocked by GH | binding to rGHBP [3]: bind to both forms of GHBP | binding to rGHBP ([3]; listed as clone 13): bound to both human and rat forms of GHBP | binding to ‘hu’ GHBP [4]: bind to both forms of GHBP | binding to ‘hu’ GHBP ([4]; listed as clone 13): bound to both human and rat forms of GHBP

Control peptide: SEQ ID NO:10, contains same amino acids as H5 in randomized order (DYKDWCLTLQPLVWASGGGYCA; control peptide) [reference compound]
antagonistic activity [5]: no antagonistic activity

DYKDALLHRSRCVRWGKWVCCLPPVGVGGAQANQGMSVQRFRHC (phage displayed; clone hh peptide)
ELISA Competition, rGHBP, +BSA [1]: 0.53 | ELISA Competition, rGHBP, +bGH ([1]; bovine GH 1 μM as competitor): 0.52 | ELISA Competition, rGHBP, none [1]: 0.55 | clone binding blocked by GH [1]: only clone 13 was blocked by GH | ELISA Competition, ‘hu’GHBP, +BSA [2]: 0.37 | ELISA Competition, ‘hu’GHBP, +hGH [2]: 0.35 | ELISA Competition, ‘hu’GHBP, none [2]: 0.37 | binding to rGHBP [3]: bind to both forms of GHBP | binding to ‘hu’ GHBP [4]: bind to both forms of GHBP
